# Measured values from patent US20130295102A1 (Novartis, published 2013).
# Tests used:
# Human Factor P [1] = target: T1, Human Factor P (human, UniProt P27918 29-469); assay: Biacore SPR, captured Factor P
# T1 construct: Bought protein (Complement Technology cat# A139) in SET and Biacore; Factor P of human serum in the functional assays; also called FP; human FP
# Cynomolgus Factor P [2] = target: T2, Cynomolgus Factor P (cynomolgus); assay: Biacore SPR, captured Factor P
# T2 construct: Purified from cynomolgus serum for SET/Biacore; Factor P of cynomolgus serum in the functional assays; also called Cyno Factor P; cyno FP
# Human Factor P [3] = target: T1, Human Factor P; assay: cell-based or functional assay
# Cynomolgus Factor P [4] = target: T2, Cynomolgus Factor P; assay: cell-based or functional assay
# Human Factor P [5] = target: T1, Human Factor P; assay: SET, solution equilibrium titration
# Procedure: (§1) In SET, a constant amount of antibody is incubated with different concentrations of antigen until equilibrium is reached. The concentration of free antibody in the equilibrated solution is determined by applying the solution on an antigen coated MSD™ plate (Meso Scale Discovery™) followed by incubation with an ECL-labeled secondary antibody and measurement of signal intensity. At low antigen concentrations, a strong signal is achieved (high concentration of free antibody which binds to the antigen on the plate) whereas for high antigen concentration, the antibody is completely antigen-captured, resulting in a low signal. If a sufficient number of antigen concentrations in a matching range are available, the titration curve allows for a reasonable determination of the affinity, using the appropriate fit model. […] The constant concentration of antibody applied in the assay should be in the range of, or below, the KD (Table 4).
# (§2) Human Factor P (Complement Technology cat#: A139) and Cyno Factor P purified from cyno serum (protocol adapted from Nakano, et al., (1986) J Immunol Methods 90:77-83) were coated on standard binding MSD plates (Meso-Scale Discovery, 384-well: MSD cat#: L21XA, 96-well: MSD cat#: L15XA) at 0.2-0.3 μg/ml in 25 μl PBS and incubated overnight at 4° C. Factor P inhibitors were diluted to a fixed concentration (1 pM or 10 pM) in incubation buffer (PBS with 2% BSA (Sigma cat#: A4503) and 1% Tween20 and 1% Triton-X (Sigma cat#: 234729)), and added to a serial dilution of Factor P (human or cyno) in incubation buffer. Samples were allowed to reach equilibrium by incubation at RT overnight. Plates were washed 3× in wash buffer (PBS with 0.05% Tween20), and blocked with 100 μl incubation buffer at RT for 2 hrs. Plates were washed 3× in wash buffer. Sample containing Factor P inhibitors and Factor P titration were added to the plate (25 μl), and incubated at RT for 15 min. Plates were washed 3× in wash buffer. 25 μl detection antibody was added (Anti-Human (Goat) Sulfo-TAG, 1:1000 in incubation buffer, MSD cat#: R32AJ-1), and incubated at RT for 60 min. Plates were washed 3× in wash buffer, and 50 μl of 1×MSD Read buffer T was added (with surfactant, MSD cat#: R92TC-1). Plates were read on a MSD Spector Imager 6000.
# Cynomolgus Factor P [6] = target: T2, Cynomolgus Factor P; assay: SET, solution equilibrium titration
# Procedure: as §1, §2
# T1 sequence (P27918 29-469 limits assumed): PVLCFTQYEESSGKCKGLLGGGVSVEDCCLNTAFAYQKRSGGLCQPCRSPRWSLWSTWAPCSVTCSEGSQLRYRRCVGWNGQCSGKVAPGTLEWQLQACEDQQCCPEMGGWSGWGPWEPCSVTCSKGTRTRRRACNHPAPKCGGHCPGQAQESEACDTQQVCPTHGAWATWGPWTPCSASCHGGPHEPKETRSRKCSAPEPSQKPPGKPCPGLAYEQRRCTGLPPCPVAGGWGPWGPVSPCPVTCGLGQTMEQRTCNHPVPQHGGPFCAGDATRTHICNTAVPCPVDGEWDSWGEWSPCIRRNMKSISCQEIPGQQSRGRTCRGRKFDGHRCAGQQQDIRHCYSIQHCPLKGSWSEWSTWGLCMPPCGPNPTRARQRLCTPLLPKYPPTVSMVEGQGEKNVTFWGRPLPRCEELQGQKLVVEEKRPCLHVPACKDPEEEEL
Kd (Human Factor P [1]),koff (Human Factor P [1]),kon (Human Factor P [1]),Kd (Cynomolgus Factor P [2]),koff (Cynomolgus Factor P [2]),kon (Cynomolgus Factor P [2]),"Inhibition of C3a generation, 20% human serum (Human Factor P [3])","MAC Deposition, 20% Serum EC50 (Human Factor P [3])","Zymosan-C3b IC50 (nM), 10% serum (Human Factor P [3])","MAC Deposition, 20% Serum EC50 (Cynomolgus Factor P [4])","Zymosan-C3b IC50 (nM), 10% serum (Cynomolgus Factor P [4])",Kd (Human Factor P [5]),Kd (Cynomolgus Factor P [6]),Binder,"Hemolytic assay IC50 (nM), 10% serum (Human Factor P [3])","Hemolytic assay IC50 (nM), 10% serum (Cynomolgus Factor P [4])"
0.083 nM,0.000125 s⁻¹,1.52e+06 M⁻¹ s⁻¹,0.182 nM,0.000279 s⁻¹,1.53e+06 M⁻¹ s⁻¹,78.4 nM,18.8 nM,2.63 nM,12.1 nM,9.91 nM,0.046 nM,0.047 nM,"NVS962 (Fab, V domains shown, also called Fab NVS962) VH: EVQLVQSGAEVKKPGSSVKVSCKASGGTFNSYAISWVRQAPGQGLEWMGRIIPIFGTANYAQKFQGRVTITADESTSTAYMELSSLRSEDTAVYYCARHGGYSFDSWGQGTLVTVSS VL: SYELTQPPSVSVAPGQTARISCSGDNLGSKYVDWYQQKPGQAPVLVIYSDNNRPSGIPERFSGSNSGNTATLTISGTQAEDEADYYCQTYTSGNNYLVFGGGTKLTVLG",13.2 nM,16.1 nM
0.496 nM,0.000311 s⁻¹,627000 M⁻¹ s⁻¹,0.475 nM,0.000264 s⁻¹,555000 M⁻¹ s⁻¹,,23.1 nM,0.64 nM,20.9 nM,1.62 nM,1.06 nM,0.93 nM,"NVS962-Q (Fab, V domains shown, NVS962 with heavy chain N30 replaced with glutamine (deamidation site removed)) VH: EVQLVQSGAEVKKPGSSVKVSCKASGGTFQSYAISWVRQAPGQGLEWMGRIIPIFGTANYAQKFQGRVTITADESTSTAYMELSSLRSEDTAVYYCARHGGYSFDSWGQGTLVTVSS VL: SYELTQPPSVSVAPGQTARISCSGDNLGSKYVDWYQQKPGQAPVLVIYSDNNRPSGIPERFSGSNSGNTATLTISGTQAEDEADYYCQTYTSGNNYLVFGGGTKLTVLG",15.3 nM,14.7 nM
0.003 nM,9.88e-06 s⁻¹,3.61e+06 M⁻¹ s⁻¹,,,,,5.9 nM,,5.95 nM,,0.0003 nM,,"NVS805 (Fab, V domains shown) VH: EVQLVQSGAEVKKPGSSVKVSCKASGGTFSSYAISWVRQAPGQGLEWMGRIIPIFGTANYAQKFQGRVTITADESTSTAYMELSSLRSEDTAVYYCARHGGYVFDSWGQGTLVTVSS VL: SYVLTQPPSVSVAPGKTARISCSGDNLGSKYVDWYQQKPGQAPVLVIYSDNNRPSGIPERFSGSNSGNTATLTISGTQAMDEADYYCATYDSSPRTEVFGGGTKLTVLG",12.8 nM,22.1 nM
0.106 nM,0.000123 s⁻¹,1.21e+06 M⁻¹ s⁻¹,,,,,5.4 nM,,6.35 nM,,0.027 nM,,"NVS807 (Fab, V domains shown) VH: EVQLVQSGAEVKKPGSSVKVSCKASGGTFSSYAISWVRQAPGQGLEWMGRIIPIFGTANYAQKFQGRVTITADESTSTAYMELSSLRSEDTAVYYCARHGGYYFDSWGQGTLVTVSS VL: SYELTQPPSVSVAPGQTARISCSGDNLGSKYVDWYQQKPGQAPVLVIYSDNNRPSGIPERFSGSNSGNTATLTISGTQAEDEADYYCQTYTSGNNYLVFGGGTKLTVLG",12.9 nM,12.6 nM
0.0247 nM,0.000104 s⁻¹,4.25e+06 M⁻¹ s⁻¹,,,,,6.46 nM,,5.9 nM,,0.0042 nM,,"NVS809 (Fab, V domains shown) VH: EVQLVQSGAEVKKPGSSVKVSCKASGGTFSSYAISWVRQAPGQGLEWMGRIIPIFGTANYAQKFQGRVTITADESTSTAYMELSSLRSEDTAVYYCARHGGYYFDSWGQGTLVTVSS VL: SYVLTQPPSVSVAPGKTARISCSGDNLGSKYVDWYQQKPGQAPVLVIYSDNNRPSGIPERFSGSNSGNTATLTISGTQAMDEADYYCATYDSSPRTEVFGGGTKLTVLG",12.1 nM,12.8 nM
0.052 nM,2.24e-05 s⁻¹,434000 M⁻¹ s⁻¹,,,,,5.74 nM,,6.51 nM,,0.018 nM,,"NVS806 (Fab, V domains shown) VH: EVQLVQSGAEVKKPGSSVKVSCKASGGTFSSYAISWVRQAPGQGLEWMGRIIPIFGTANYAQKFQGRVTITADESTSTAYMELSSLRSEDTAVYYCARHGGYVFDSWGQGTLVTVSS VL: SYELTQPPSVSVAPGQTARISCSGDNLGSKYVDWYQQKPGQAPVLVIYSDNNRPSGIPERFSGSNSGNTATLTISGTQAEDEADYYCQTYTSGNNYLVFGGGTKLTVLG",10.1 nM,13.9 nM
0.195 nM,0.000154 s⁻¹,791000 M⁻¹ s⁻¹,,,,,6.51 nM,,8.38 nM,,0.107 nM,,"NVS808 (Fab, V domains shown) VH: EVQLVQSGAEVKKPGSSVKVSCKASGGTFSSYAISWVRQAPGQGLEWMGRIIPIFGTANYAQKFQGRVTITADESTSTAYMELSSLRSEDTAVYYCARHGGYIFDSWGQGTLVTVSS VL: SYELTQPPSVSVAPGQTARISCSGDNLGSKYVDWYQQKPGQAPVLVIYSDNNRPSGIPERFSGSNSGNTATLTISGTQAEDEADYYCQTYTSGNNYLVFGGGTKLTVLG",13.3 nM,15.5 nM
0.005 nM,1.29e-05 s⁻¹,2.72e+06 M⁻¹ s⁻¹,,,,,5.85 nM,,8.51 nM,,0.0008 nM,,"NVS804 (Fab, V domains shown) VH: EVQLVQSGAEVKKPGSSVKVSCKASGGTFSSYAISWVRQAPGQGLEWMGRIIPIFGTANYAQKFQGRVTITADESTSTAYMELSSLRSEDTAVYYCARHGGYIFDSWGQGTLVTVSS VL: SYVLTQPPSVSVAPGKTARISCSGDNLGSKYVDWYQQKPGQAPVLVIYSDNNRPSGIPERFSGSNSGNTATLTISGTQAMDEADYYCATYDSSPRTEVFGGGTKLTVLG",12.4 nM,14.4 nM
1.14 nM,0.00044 s⁻¹,387000 M⁻¹ s⁻¹,1.08 nM,0.000339 s⁻¹,313000 M⁻¹ s⁻¹,,12.7 nM,1.18 nM,9.27 nM,2.94 nM,0.953 nM,0.567 nM,"NVS962-G (Fab, V domains shown, NVS962 with heavy chain N30 replaced with glycine) VH: EVQLVQSGAEVKKPGSSVKVSCKASGGTFGSYAISWVRQAPGQGLEWMGRIIPIFGTANYAQKFQGRVTITADESTSTAYMELSSLRSEDTAVYYCARHGGYSFDSWGQGTLVTVSS VL: SYELTQPPSVSVAPGQTARISCSGDNLGSKYVDWYQQKPGQAPVLVIYSDNNRPSGIPERFSGSNSGNTATLTISGTQAEDEADYYCQTYTSGNNYLVFGGGTKLTVLG",13.4 nM,14.2 nM
